Assay results: US20250090676A1 (SUTRO BIOPHARMA, published 2025)
Changes are numbered by the printed parent chain.

B1: SRP1848-F04 (antibody, V domains shown)
VH: EVQLVESGGGLVQPGGSLRLSCAASGFNISNYSIHWVRQAPGKGLEWVGEIYPIDGITDYADSVKGRFTISADTSKNTAYLQMNSLRAEDTAVYYCARGSWFWRSGYGYYLDYWGQGTLVTVSS
VL: not shown
notes: IgG with common trastuzumab LC, cell-free expressed, HIS- and FLAG-tagged; also called Antibody 39
B2: SRP1848-C01 (antibody, V domains shown)
VH: EVQLVESGGGLVQPGGSLRLSCAASGFNIGNSYIHWVRQAPGKGLEWVGGVTPNDGYTDYADSVKGRFTISADTSKNTTYLQMNSLRAEDTAVYYCARGSWFWRAGYGYYLDYWGQGALVTVSS
VL: not shown
notes: IgG with common trastuzumab LC, cell-free expressed, HIS- and FLAG-tagged; also called Antibody 18
B3: SRP1848-E02 (antibody, V domains shown)
VH: B1 VH with S30G, N31K, I54N, I57N, F102S
VL: not shown
notes: IgG with common trastuzumab LC, cell-free expressed, HIS- and FLAG-tagged; also called Antibody 32
B4: SRP1848-A04 (antibody, V domains shown)
VH: B1 VH with S30D, N31Q, Y32S, E50V, I54V, I57T, S100A, F102S, L111I
VL: not shown
notes: IgG with common trastuzumab LC, cell-free expressed, HIS- and FLAG-tagged; also called Antibody 3
B5: SRP1848-F05 (antibody, V domains shown)
VH: B1 VH with N31K, Y32S, I54N, I57S, F102A, G108S, Y110F
VL: not shown
notes: IgG with common trastuzumab LC, cell-free expressed, HIS- and FLAG-tagged; also called Antibody 40
B6: SRP1848-B07 (antibody, V domains shown)
VH: EVQLVESGGGLVQPGGSLRLSCAASGFNISRFYIHWVRQAPGKGLEWVGGISPYDGFTDYADSVKGRFTISADTSKNTAYLQMNSLRAEDTAVYYCARGSWSWPAGYGYYQDYWGQGTLVTVSS
VL: not shown
notes: IgG with common trastuzumab LC, cell-free expressed, HIS- and FLAG-tagged; also called Antibody 14
B7: SRP1848-A06 (antibody, V domains shown)
VH: B2 VH with V51I, N54I, Y57N, T79A, S100A, F102S, A105S, L111I, A118T
VL: not shown
notes: IgG with common trastuzumab LC, cell-free expressed, HIS- and FLAG-tagged; also called Antibody 4
B8: SRP1848-A08 (antibody, V domains shown)
VH: B1 VH with F27S, S30R, N31K, Y32H, E50S, I54N, I57T, S105A
VL: not shown
notes: IgG with common trastuzumab LC, cell-free expressed, HIS- and FLAG-tagged; also called Antibody 6
B9: SRP1848-D02 (antibody, V domains shown)
VH: B6 VH with R31H, F32N, S52T, Y54Q, F57Y, S85R, S100A, P104R, Q111L
VL: not shown
notes: IgG with common trastuzumab LC, cell-free expressed, HIS- and FLAG-tagged; also called Antibody 24
B10: SRP1848-D09 (antibody, V domains shown)
VH: B1 VH with S33Y, E50G, Y52S, I54N, I57Y, F102S, S105H
VL: not shown
notes: IgG with common trastuzumab LC, cell-free expressed, HIS- and FLAG-tagged; also called Antibody 29
B11: SRP1848-A09 (antibody, V domains shown)
VH: B1 VH with S30R, N31K, Y32Q, E50S, Y52F, I54N, I57T, M83V, Y110F, D112E
VL: not shown
notes: IgG with common trastuzumab LC, cell-free expressed, HIS- and FLAG-tagged; also called Antibody 7
B12: SRP1848-D05 (antibody, V domains shown)
VH: B6 VH with R31I, F32S, Y54I, F57Y, P104R, Q111L
VL: not shown
notes: IgG with common trastuzumab LC, cell-free expressed, HIS- and FLAG-tagged; also called Antibody 27
B13: SRP1848-A10 (antibody, V domains shown)
VH: B1 VH with S30R, N31K, V37A, E50D, Y52F, G56D, F102S, R104P, Y107H, G108S
VL: not shown
notes: IgG with common trastuzumab LC, cell-free expressed, HIS- and FLAG-tagged; also called Antibody 8
B14: SRP1848-C10 (antibody, V domains shown)
VH: B6 VH with S30R, R31T, F32Y, Y54I, F57Y, Q111L
VL: not shown
notes: IgG with common trastuzumab LC, cell-free expressed, HIS- and FLAG-tagged; also called Antibody 23
B15: SRP1848-C07 (antibody, V domains shown)
VH: B1 VH with S30R, N31K, E50D, Y52F, V64M, F102S, R104P, S105A, L111Q
VL: not shown
notes: IgG with common trastuzumab LC, cell-free expressed, HIS- and FLAG-tagged; also called Antibody 22
B16: SRP1848-B10 (antibody, V domains shown)
VH: B1 VH with I29T, S30T, N31T, Y32K, I54R, S100G, F102H, G108S
VL: not shown
notes: IgG with common trastuzumab LC, cell-free expressed, HIS- and FLAG-tagged; also called Antibody 16
B17: SRP1848-B11 (antibody, V domains shown)
VH: B1 VH with S30G, Y32N, E50D, Y52S, I57F, F102S, S105A
VL: not shown
notes: IgG with common trastuzumab LC, cell-free expressed, HIS- and FLAG-tagged; also called Antibody 17
B18: SRP1848-E07 (antibody, V domains shown)
VH: B1 VH with S30R, N31K, Y32S, Y52F, I54Y, I57S, S63N, S100A, F102S, L111I
VL: not shown
notes: IgG with common trastuzumab LC, cell-free expressed, HIS- and FLAG-tagged; also called Antibody 36

Target: T1, human FOLR1-HIS (human, UniProt P15328 25-233)
T1 construct: Analyte of the Biacore assay; also called FolRα-ECD; extracellular domain of FOLR1; not shown: HIS tag
T1 sequence (P15328 25-233 limits assumed): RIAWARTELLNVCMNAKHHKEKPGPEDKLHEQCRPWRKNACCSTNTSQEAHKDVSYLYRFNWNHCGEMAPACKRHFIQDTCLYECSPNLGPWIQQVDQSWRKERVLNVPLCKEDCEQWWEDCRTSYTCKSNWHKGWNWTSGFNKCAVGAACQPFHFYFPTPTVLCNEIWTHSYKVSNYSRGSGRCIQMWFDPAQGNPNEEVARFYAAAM
Experiment: SPR (Biacore), antibody captured on anti-Fc, human FOLR1-HIS analyte, 25 C
Method: Anti-Fc polyclonal antibodies were immobilized onto a CM5 chip (GE Life Sciences) using amine coupling chemistry (from Amine Coupling Kit, GE Life Sciences). The immobilization steps were carried out at a flow rate of 25 μL/min in 1×HBS-EP+ buffer (GE Life Sciences; 10× Stock diluted before use). […] Ethanolamine (1 M, pH 8.5) was injected for 7 min to block any remaining activated groups. An average of 12,000 response units (RU) of capture antibody was immobilized on each flow cell.
Off-rate and kinetic binding experiments were performed at 25° C. using 1×HBS-EP+ buffer. […] Between each ligand capture and analyte binding cycle, regeneration was carried out using 2 injections of 10 mM glycine pH 2.0 for 30 seconds at 30 μL/min, followed by a 30 second buffer wash step.
The data were fit with the Biacore T200 Evaluation software, using a 1:1 Langmuir binding model. KD (affinity, nM) was determined as a ratio of the kinetic rate constants calculated from the fits of the association and dissociation phases.

Row | Binder | Kd [nM] | koff [s⁻¹] | kon [M⁻¹ s⁻¹]
1 | B1 | 1.32 | 0.00108 | 815000
2 | B2 | 3.05 |  | 
3 | B3 | 6.21 | 0.00707 | 1.14e+06
4 | B4 | 2.03 | 0.00326 | 1.61e+06
5 | B5 | 2.4 | 0.00157 | 656000
6 | B6 | 5.35 | 0.00378 | 706000
7 | B7 | 3.51 |  | 
8 | B8 | 2.42 | 0.00119 | 493000
9 | B9 | 2.41 | 0.00205 | 851000
10 | B10 | 10.1 | 0.0108 | 1.07e+06
11 | B11 | 1.82 |  | 
12 | B12 | 2.93 |  | 
13 | B13 | 2.74 | 0.0033 | 1.2e+06
14 | B14 | 4.03 | 0.00363 | 899000
15 | B15 | 2.21 | 0.00189 | 856000
16 | B16 | 2.18 |  | 
17 | B17 | 1.52 | 0.00186 | 1.22e+06
18 | B18 | 1.91 | 0.0024 | 1.25e+06
